Data: patent publication US20250313626A1 (HARBOUR BIOMED SHANGHAI, published 2025)
Positions count from the first letter of the chain named.

B1: PR002906 (antibody, V domains shown)
VH: QVQLQESGPGLVKPSETLSLTCTVSGYTITSGYDWSWIRQPPGKGLEWIGYINYGGSTNYKPSLGSRVTISVDTSKNQFSLKLSSVTAADTAVYYCARYNEYKSYIYDWYFDFWGQGTLVTVSS
VL: DIQMTQSPSSLSASVGDRVTITCKASKNIRSYLAWYQQKPGKAPKLLIYSGSTLHSGVPSRFSGSGSGTDFTLTISSLQPEDFATYYCQQHHEYPLTFGQGTKVEIKR
notes: also called recombinant IgG1 antibody of huDX182
B2: PR006480 (antibody, human IgG1, kappa, L234A L235A)
heavy: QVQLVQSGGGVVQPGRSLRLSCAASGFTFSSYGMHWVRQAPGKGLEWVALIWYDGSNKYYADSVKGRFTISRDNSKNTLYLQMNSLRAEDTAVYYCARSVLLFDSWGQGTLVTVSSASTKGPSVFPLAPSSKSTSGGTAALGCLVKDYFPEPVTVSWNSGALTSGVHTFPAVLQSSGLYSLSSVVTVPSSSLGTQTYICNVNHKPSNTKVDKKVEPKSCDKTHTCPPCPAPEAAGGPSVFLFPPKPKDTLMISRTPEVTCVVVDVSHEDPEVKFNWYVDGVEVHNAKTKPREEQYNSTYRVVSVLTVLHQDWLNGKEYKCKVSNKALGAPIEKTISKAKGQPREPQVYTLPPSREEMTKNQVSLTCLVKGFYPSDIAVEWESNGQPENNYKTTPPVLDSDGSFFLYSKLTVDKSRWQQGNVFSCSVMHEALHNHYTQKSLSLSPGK
light: DIQMTQSPPSLSASVGDRVTITCRASQSISSYLNWFQQKAGKAPKLLISATSNLQSGVPSRFSGSGSGTDFTLTISSLQPEDLATYYCQQSYSSPYTFGQGTKVEIKRTVAAPSVFIFPPSDEQLKSGTASVVCLLNNFYPREAKVQWKVDNALQSGNSQESVTEQDSKDSTYSLSSTLTLSKADYEKHKVYACEVTHQGLSSPVTKSFNRGEC
notes: also called PR6480
B3: PR007223 (antibody, human IgG1, kappa)
heavy: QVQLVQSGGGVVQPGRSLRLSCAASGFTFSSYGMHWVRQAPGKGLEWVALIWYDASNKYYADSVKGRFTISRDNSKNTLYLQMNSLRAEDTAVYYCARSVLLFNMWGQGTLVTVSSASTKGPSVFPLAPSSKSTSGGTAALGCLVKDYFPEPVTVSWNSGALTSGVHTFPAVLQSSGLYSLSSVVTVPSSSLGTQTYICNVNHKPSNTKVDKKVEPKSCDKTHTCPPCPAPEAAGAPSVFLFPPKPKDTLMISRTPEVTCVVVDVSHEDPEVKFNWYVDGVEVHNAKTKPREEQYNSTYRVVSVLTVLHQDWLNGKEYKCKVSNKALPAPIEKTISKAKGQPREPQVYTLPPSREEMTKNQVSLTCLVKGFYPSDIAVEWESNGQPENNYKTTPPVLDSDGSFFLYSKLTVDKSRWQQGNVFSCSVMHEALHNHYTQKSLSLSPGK
light: B2 light with M4L, S91T
notes: PTM variant of PR006895 (human IgG1)
B4: PR007221 (antibody, human IgG1, kappa)
heavy: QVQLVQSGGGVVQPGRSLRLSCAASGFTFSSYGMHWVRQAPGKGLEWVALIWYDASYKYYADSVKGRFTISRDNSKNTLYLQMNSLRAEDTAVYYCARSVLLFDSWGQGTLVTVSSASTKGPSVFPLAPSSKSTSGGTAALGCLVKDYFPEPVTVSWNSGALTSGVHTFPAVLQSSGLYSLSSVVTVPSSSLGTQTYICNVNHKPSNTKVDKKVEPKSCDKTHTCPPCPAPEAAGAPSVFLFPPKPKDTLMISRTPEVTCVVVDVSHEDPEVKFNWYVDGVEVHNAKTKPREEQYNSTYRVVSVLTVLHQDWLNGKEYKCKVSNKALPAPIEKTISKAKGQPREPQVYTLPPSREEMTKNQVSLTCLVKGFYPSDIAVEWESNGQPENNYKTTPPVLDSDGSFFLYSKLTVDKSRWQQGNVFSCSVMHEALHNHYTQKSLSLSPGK
light: B2 light with M4L, S91T, Y92L
notes: as for B3
B5: PR007973 (antibody, human IgG1, kappa, V domains shown)
VH: QVQLVESGGGVVQPGRSLRLSCAASGFTFSSYGFHWVRQAPGKGLEWLGIIWSDASNKYYADSVKGRFTISRDNSKNTLYLQMNSLRAEDTAVYYCARDRIVGEGFDYWGQGTLVTVSS
VL: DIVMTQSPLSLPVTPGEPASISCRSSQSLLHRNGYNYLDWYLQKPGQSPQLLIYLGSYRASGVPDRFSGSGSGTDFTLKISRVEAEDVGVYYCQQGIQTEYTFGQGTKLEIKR
notes: PTM variant of PR006839 (human IgG1)

Legend:
[1] = biological target: T1, human CD200R1 isoform a on CHOK1 cells (CHOK1/hCD200R1a) (human, UniProt Q8TD46 25-348); test: flow cytometry blocking assay: antibody titrated against biotin-labelled human CD200 binding to CHOK1/hCD200R1a cells; head prints EC50 without unit, x axis Log [Ab] (nM), y axis Inhibition %
T1 construct: also called CHOK1/CD200R1a
T1 sequence: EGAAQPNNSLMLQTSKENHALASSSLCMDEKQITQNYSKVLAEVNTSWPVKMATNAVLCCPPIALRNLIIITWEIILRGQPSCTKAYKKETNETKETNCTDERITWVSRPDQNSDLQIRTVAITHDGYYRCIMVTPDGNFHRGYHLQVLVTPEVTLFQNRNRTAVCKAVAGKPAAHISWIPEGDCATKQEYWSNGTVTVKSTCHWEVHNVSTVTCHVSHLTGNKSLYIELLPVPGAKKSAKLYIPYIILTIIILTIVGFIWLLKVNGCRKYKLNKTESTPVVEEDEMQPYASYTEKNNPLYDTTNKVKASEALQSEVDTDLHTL
Description: (§1) In brief, CHOK1/hCD200R1a cells were digested and resuspended in 2% BSA in PBS. […] The cells were placed at 4° C. and incubated for 1 hour in the dark. […] 100 μL/well of pre-cooled PBS containing 2% BSA was added to rinse the cells twice, centrifugation was performed at 500 g, 4° C. for 5 minutes, and the supernatant was discarded. Fluorescent secondary antibody (PE Streptavidin, BD, Cat #: 554061, 1:200) was added at 100 μL/well, and incubation was performed at 4° C. for 30 minutes in the dark. The cells were washed twice with 200 μL/well of pre-cooled PBS, and were centrifuged at 500 g, 4° C. for 5 minutes, and the supernatant was discarded. Finally, 200 μL/well of pre-cooled PBS was used to resuspend the cells, and the fluorescence signal values were read using ACEA Novocyte 3000 flow cytometer. IC50 values were calculated.

[2] = biological target: T1, human CD200R1 isoform a on CHOK1 cells …; test: flow cytometry, CHOK1/hCD200R1a cells (FITC-Mean); table beside the curves, head without unit, x axis Log [Ab] (nM)
[3] = biological target: T1, human CD200R1 isoform a on CHOK1 cells …; test: flow cytometry blocking assay: biotin-labelled human CD200 binding to CHOK1/hCD200R1a cells; y axis Inhibition %
Description: as §1

[4] = biological target: T1, human CD200R1 isoform a on CHOK1 cells …; test: flow cytometry, CHOK1/hCD200R1a cells (FITC-Mean); table beside the curves
Description: This example is intended to investigate the in vitro binding activity of human anti-CD200R1 monoclonal antibodies to human/Cynomolgus macaques CD200R1a expressed on the surface of cells. The anti-CD200R1 antibodies were produced as described in Example 3.4 and the binding experiments at the cell level were performed using CHOK1/hCD200R1a and CHOK1-cynoCD200R1a.
Briefly, CHOK1/hCD200R1a cells and CHOK1-cynoCD200R1a cells were digested, and collected, and then were resuspended in PBS containing 2% BSA, respectively. The cell density was adjusted to 1×10⁶ cells/mL. The cells were seeded in a 96-well V-bottom plate (Corning, #3894) at 100 μL/well, followed by the addition of test antibodies and reference antibodies in a series diluted concentration, each at 100 μL/well. The cells were incubated away from light at 4° C. for 1 h. Thereafter, the cells in each well were rinsed twice with 100 μL of pre-cooled PBS containing 2% BSA, and centrifuged at 500 g at 4° C. for 5 min, and then the supernatant was discarded. 100 μL of fluorescent secondary antibody (Alexa Fluor 488-conjugated AffiniPure Goat Anti-Human IgG, Fcγ Fragment Specific, Jackson, #109-545-098, diluted in a 1:1000 ratio) was added in each well, and the plate was incubated away from light at 4° C. for 1 h. The cells in each well were rinsed twice with 100 μL of pre-cooled PBS containing 2% BSA, and centrifuged at 500 g at 4° C. for 5 min, and then the supernatant was discarded. Finally, the cells in each well were resuspended in 200 μL of pre-cooled PBS containing 2% BSA, and the fluorescence signal values were read using a BD CantoII flow cytometer.

[5] = biological target: T2, human CD200R1a protein (soluble recombinant) (human, UniProt Q8TD46 29-265); test: BLI in-tandem competition on His-captured human CD200R1a; row = 1st Ab (400 nM); competitor (2nd Ab) PR006207
T2 construct: Soluble protein used in BLI; also called human CD200R1 isoform a; not shown: His tag implied by capture on anti-Penta-HIS biosensors
T2 sequence: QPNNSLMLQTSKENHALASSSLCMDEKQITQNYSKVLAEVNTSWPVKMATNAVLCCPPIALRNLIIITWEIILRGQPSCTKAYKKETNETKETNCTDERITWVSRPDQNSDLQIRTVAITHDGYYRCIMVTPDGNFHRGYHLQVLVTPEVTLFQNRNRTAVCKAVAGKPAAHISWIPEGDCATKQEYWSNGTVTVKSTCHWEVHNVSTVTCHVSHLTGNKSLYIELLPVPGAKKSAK
Description: (§2) To determine if the anti-CD200R1 antibodies bind to human CD200R1a on different or approximate binding epitopes, epitope competition experiments for the anti-CD200R1 antibodies were performed by the ForteBlio Octet® RED96e platform. […] The in-tandem competition assay format was applied, and it contained two association steps. Firstly, the antigen-loaded biosensors bound to each antibody (i.e., First antibody, 1st Ab) at a saturating concentration of 400 nM for 300 seconds to reach equilibrium and then secondly bound to the competing antibodies (i.e., Second antibody, 2nd Ab) of 400 nM for 300 seconds. The second binding signals are recorded as the 100% signal of each antibody when the first antibodies are replaced by kinetic buffer. All the binding data were analyzed using ForteBlio Data Analysis 11.0 software. The inhibition rate was calculated by the following formula: […]

[6] = biological target: T2, human CD200R1a protein (soluble …); test: BLI in-tandem competition on His-captured human CD200R1a; row = 1st Ab (400 nM); competitor (2nd Ab) PR007973
Description: as §2

| Binder | EC50 [1] [nM] | EC50 [2] [nM] | Blocking(Max) [3] [%] | MFI(Max) [4] | Inhibition ratio (%) [5] [%] | Inhibition ratio (%) [6] [%] |
| --- | --- | --- | --- | --- | --- | --- |
| B1 | 0.479 | 0.292 | 95.4 | 11100 | – | – |
| B2 | 0.164 | 0.124 | 61 | 8890 | – | – |
| B3 | 0.122 | 0.133 | 88 | 9890 | -50.2 | 99.6 |
| B4 | 0.194 | 0.172 | 80.4 | 11100 | -40.7 | 95.6 |
| B5 | – | – | – | – | -44.7 | 103 |
